Assay results as given in article PMC2797370.

Experiments:
purified protein [1] = substrate: CCCCC/C=C\C/C=C\C/C=C\C/C=C\CCCC(=O)O; experiment: purified protein; details: heme
purified protein [2] = substrate: CCCCC/C=C\C/C=C\C/C=C\C/C=C\CCCC(=O)Nc1cccc(O)c1; experiment: purified protein; details: heme

B1: prostaglandin endoperoxide synthase-2 (PGHS-2) (Mus musculus) (protein)
chain: ANPCCSNPCQNRGECMSTGFDQYKCDCTRTGFYGENCTTPEFLTRIKLLLKPTPNTVHYILTHFKGVWNIVNNIPFLRSLIMKYVLTSRSYLIDSPPTYNVHYGYKSWEAFSNLSYYTRALPPVADDCPTPMGVKGNKELPDSKEVLEKVLLRREFIPDPQGSNMMFAFFAQHFTHQFFKTDHKRGPGFTRGLGHGVDLNHIYGETLDRQHKLRLFKDGKLKYQVIGGEVYPPTVKDTQVEMIYPPHIPENLQFAVGQEVFGLVPGLMMYATIWLREHNRVCDILKQEHPEWGDEQLFQTSRLILIGETIKIVIEDYVQHLSGYHFKLKFDPELLFNQQFQYQNRIASEFNTLYHWHPLLPDTFNIEDQEYSFKQFLYNNSILLEHGLTQFVESFTRQIAGRVAGGRNVPIAVQAVAKASIDQSREMKYQSLNEYRKRFSLKPYTSFEELTGEKEMAAELKALYSDIDVMELYPALLVEKPRPDAIFGETMVELGAPFSLKGLMGNPICSPQYWKPSTFGGEVGFKIINTASIQSLICNNVKGCPFTSFNVQDPQPTKTATINASASHSRLDDINPTVLIKRRSTEL
- Km (purified protein [1]): 2.5 ± 0.4 µM
- kcat (purified protein [1]): 47 s⁻¹
- kcat/Km (purified protein [1]): 1.9e+07 M⁻¹ s⁻¹

B2: prostaglandin endoperoxide synthase-1 (PGHS-1) (Ovis aries) (protein)
chain: ADPGAPAPVNPCCYYPCQHQGICVRFGLDRYQCDCTRTGYSGPNCTIPEIWTWLRTTLRPSPSFIHFLLTHGRWLWDFVNATFIRDTLMRLVLTVRSNLIPSPPTYNIAHDYISWESFSNVSYYTRILPSVPRDCPTPMDTKGKKQLPDAEFLSRRFLLRRKFIPDPQSTNLMFAFFAQHFTHQFFKTSGKMGPGFTKALGHGVDLGHIYGDNLERQYQLRLFKDGKLKYQMLNGEVYPPSVEEAPVLMHYPRGIPPQSQMAVGQEVFGLLPGLMLYATIWLREHNRVCDLLKAEHPTWGDEQLFQTARLILIGETIKIVIEEYVQQLSGYFLQLKFDPELLFGAQFQYRNRIAMEFNQLYHWHPLMPDSFRVGPQDYSYEQFLFNTSMLVDYGVEALVDAFSRQPAGRIGGGRNIDHHILHVAVDVIKESRVLRLQPFNEYRKRFGMKPYTSFQELTGEKEMAAELEELYGDIDALEFYPGLLLEKCHPNSIFGESMIEMGAPFSLKGLLGNPICSPEYWKASTFGGEVGFNLVKTATLKKLVCLNTKTCPYVSFHVPDPRQEDRPGVERPPTEL
- Km (purified protein [2]): 15 ± 1 µM
- kcat (purified protein [2]): 22 ± 1 s⁻¹
- kcat/Km (purified protein [2]): 1.5e+06 ± 1e+06 M⁻¹ s⁻¹
- Km (purified protein [1]): 3.4 ± 0.6 µM
